Source: patent US20240390531A1 (IMAGINAB, published 2024)

Each binder was assayed against T1, purified human FAP antigen (human, UniProt Q12884 26-760, limits assumed) (assay: ELISA, plate coated with purified human FAP antigen (FIG. 56A-56C)).
Method: (§1) Binding kinetics of the novel antigen binding constructs to a purified human FAP antigen was assessed using ELISA. For this assay, a 96 well ELISA plate was coated with the human-FAP antigen diluted to a concentration of 2 mg/mL in coating buffer (0.05M sodium carbonate-bicarbonate buffer, pH 9.6). 100 μl of this coating solution was added to each well in the plate and incubate at 4° C. overnight. The plate was washed 3 times with 300 μl per well of washing buffer (PBS with 0.05% Tween-20). After the last wash, the plate was blocked by adding to each well 200 μl of blocking buffer (PBS with 1% BSA) warmed to room temperature. The plate was then incubated at room temperature for 1 hour under gentle agitation. After blocking, the plate was washed 3 times with 300 μl per well of washing buffer. Dilution samples for each minibody were created by making 2.5× dilutions from a starting sample at 100 ng/mL, or 250 ng/mL, or 1000 ng/mL or 3000 ng/mL in 100 μL sample buffer (PBS with 1% BSA). The dilution samples were transferred to the assay plate and incubated at room temperature for 1 hour under gentle agitation. The plate was then washed 3 times with 300 μl per well of washing buffer.
(§2) Detection was performed by adding 100 μl of HRP labeled detection secondary antibody at an appropriate dilution and incubating the plate at room temperature for 1 hour under gentle agitation. The plate was then washed 3 times with 300 μl per well of washing buffer. For color development, 100 μl of TMB substrate regent, pre-warmed to room temperature, was added to the plate and incubated in the dark at room temperature for 15 min. The reaction was then stopped by adding 100 μl of 650 nm stop solution to the plate and mixed for 1 min at room temperature under gentle agitation. The plate is recorded by reading OD at 650 nm in a plate reader within 20 min after terminating the reaction.

Row | Binder | Kd [nM]
1 | IAB16M1-10 (other) EIVLTQSPGTLSLSPGERATLSCRASQSVSRSYLAWYQQKPGQAPRLLIIGASTRATGIPDRFSGSGSGTDFTLTISRLEPEDFAVYYCQQGQVIPPTFGQGTKVEIKGSTSGGGSGGGSGGGGSSEVQLLESGGGLVQPGGSLRLSCAASGFTFSSHAMSWVRQAPGKGLEWVSAIWASGEQYYADSVKGRFTISRDNSKNTLYLQMNSLRAEDTAVYYCAKGWLGNFDYWGQGTLVTVSSEPKSSDKTHTCPPCPPCGGGSSGGGSGGQPREPQVYTLPPSREEMTKNQVSLTCLVKGFYPSDIAVEWESNGQPENNYKTTPPVLDSDGSFFLYSKLTVDKSRWQQGNVFSCSVMHEALHNHYTQKSLSLSPG | ~0.1
2 | IAB16M1-30 (other) DIVMTQSPDSLAVSLGERATINCKSSQSLLYSRNQKNYLAWYQQKPGQPPKLLIFWASTRESGVPDRFSGSGSGTDFTLTISSLQAEDFAVYYCQQYYSYPLTFGQGTKVEIKGSTSGGGSGGGSGGGGSSQVQLVQSGAEVKKPGASVKVSCKASGYTFTEYTIHWVRQAPGQRLEWIGGINPNNGIPNYNQKFKGRVTITVDTSASTAYMELSSLRSEDTAVYYCARRRIAYGYDEGHAMDYWGQGTLVTVSSEPKSSDKTHTCPPCPPCGGGSSGGGSGGQPREPQVYTLPPSREEMTKNQVSLTCLVKGFYPSDIAVEWESNGQPENNYKTTPPVLDSDGSFFLYSKLTVDKSRWQQGNVFSCSVMHEALHNHYTQKSLSLSPG | ~0.1

Further lines, results first:

Row | Kd [nM] | Binder
3 | ~0.1 | IAB16M2-31 (other) QVQLVQSGAEVKKPGASVKVSCKASGYTFTEYTIHWVRQAPGQRLEWIGGINPNNGIPNYNQKFKGRVTITVDTSASTAYMELSSLRSEDTAVYYCARRRIAYGYDEGHAMDYWGQGTLVTVSSGSTSGGGSGGGSGGGGSSDIVMTQSPDSLAVSLGERATINCKSSQSLLYSRNQKNYLAWYQQKPGQPPKLLIFWASTRESGVPDRFSGSGSGTDFTLTISSLQAEDFAVYYCQQYYSYPLTFGQGTKVEIKEPKSSDKTHTCPPCPPCGGGSSGGGSGGQPREPQVYTLPPSREEMTKNQVSLTCLVKGFYPSDIAVEWESNGQPENNYKTTPPVLDSDGSFFLYSKLTVDKSRWQQGNVFSCSVMHEALHNHYTQKSLSLSPG
4 | ~0.1 | IAB16M2-33 (other) QVQLVQSGAEVKKPGASVKVSCKTSRYTFTEYTIHWVRQAPGQRLEWIGGINPNNGIPNYNQKFKGRVTITVDTSASTAYMELSSLRSEDTAVYYCARRRIAYGYDEGHAMDYWGQGTLVTVSSGSTSGGGSGGGSGGGGSSDIVMTQSPDSLAVSLGERATINCKSSQSLLYSRNQKNYLAWYQQKPGQPPKLLIFWASTRESGVPDRFSGSGFGTDFTLTISRLEPEDFAVYYCQQYFSYPLTFGQGTKVEIKEPKSSDKTHTCPPCPPCGGGSSGGGSGGQPREPQVYTLPPSREEMTKNQVSLTCLVKGFYPSDIAVEWESNGQPENNYKTTPPVLDSDGSFFLYSKLTVDKSRWQQGNVFSCSVMHEALHNHYTQKSLSLSPG
5 | ~0.1 | IAB16M1-36 (other) DIVMTQSPDSLAVSLGERATINCKSSQSLLYSRNQKNYLAWYQQKPGQPPKLLIFWASTRESGVPDRFSGSGSGTDFTLTISRLEPEDFAVYYCQQYYSYPLTFGQGTKVEIKGSTSGGGSGGGSGGGGSSQVQLVQSGAEVKKPGASVKVSCKASGYTFTEYTIHWVRQAPGQRLEWIGGINPNNGIPNYNQKFKGRVTITVDTSASTAYMELSSLRSEDTAVYYCARRRIAYGYDEGHAMDYWGQGTLVTVSSEPKSSDKTHTCPPCPPCGGGSSGGGSGGQPREPQVYTLPPSREEMTKNQVSLTCLVKGFYPSDIAVEWESNGQPENNYKTTPPVLDSDGSFFLYSKLTVDKSRWQQGNVFSCSVMHEALHNHYTQKSLSLSPG
6 | ~0.1 | IAB16M1-32 (other) DIVMTQSPDSLAVSLGERATINCKSSQSLLYSRNQKNYLAWYQQKPGQPPKLLIFWASTRESGVPDRFSGSGFGTDFTLTISRLEPEDFAVYYCQQYFSYPLTFGQGTKVEIKGSTSGGGSGGGSGGGGSSQVQLVQSGAEVKKPGASVKVSCKTSRYTFTEYTIHWVRQAPGQRLEWIGGINPNNGIPNYNQKFKGRVTITVDTSASTAYMELSSLRSEDTAVYYCARRRIAYGYDEGHAMDYWGQGTLVTVSSEPKSSDKTHTCPPCPPCGGGSSGGGSGGQPREPQVYTLPPSREEMTKNQVSLTCLVKGFYPSDIAVEWESNGQPENNYKTTPPVLDSDGSFFLYSKLTVDKSRWQQGNVFSCSVMHEALHNHYTQKSLSLSPG

These binders were tested against T2, human FAP on cells (human, UniProt Q12884 1-760) (assay: flow cytometry on U87-MG glioblastoma cells (FIG. 58B)).
T2 construct: whole, on cells; The cell line is named under assay; also called HT1080 human FAP cells; HT1080-hFAP cells
Method: As disclosed herein, the binding of constructs to cellular targets was assessed using flow cytometry. Stock of 2.5× serial dilution of minibodies were created starting from a concentration of 100 nM in […] FACS buffer (PBS 2% FBS). Cells were added to a Corning V-bottom polypropylene cell culture plate at 200,000 cells/well. The cells were centrifuged at 100 rpm for 3 minutes and the supernatant discarded. The minibody dilution series were transferred to the plate containing cell pellets and incubated for 1 hr at 4° C. The plate was then washed 3 times with FACS buffer at 200 µl/well, discarding supernatant after each wash by centrifugation at 1000 rpm. 50 µl/well of detection antibody R&D AlexaFluor-647 Goat anti Human (H+L) was added at a 1:100 dilution in FACS buffer and incubated at 4° C. 1 hr. The plate was washed 3 times with FACS buffer at 200 µl/well, discarding supernatant after each wash by centrifuging at 1000 rpm. Cells were then fixed by adding 100 µl of 1% paraformaldehyde in PBS and incubating at room temperature for 15 minutes. 100 µl of PBS were added to each well and the plate was analyzed by flow cytometry using the allophycocyanin fluorescence setting.

Row | Kd [nM] | Binder
7 | ~0.1 | IAB16M1-10 (other) EIVLTQSPGTLSLSPGERATLSCRASQSVSRSYLAWYQQKPGQAPRLLIIGASTRATGIPDRFSGSGSGTDFTLTISRLEPEDFAVYYCQQGQVIPPTFGQGTKVEIKGSTSGGGSGGGSGGGGSSEVQLLESGGGLVQPGGSLRLSCAASGFTFSSHAMSWVRQAPGKGLEWVSAIWASGEQYYADSVKGRFTISRDNSKNTLYLQMNSLRAEDTAVYYCAKGWLGNFDYWGQGTLVTVSSEPKSSDKTHTCPPCPPCGGGSSGGGSGGQPREPQVYTLPPSREEMTKNQVSLTCLVKGFYPSDIAVEWESNGQPENNYKTTPPVLDSDGSFFLYSKLTVDKSRWQQGNVFSCSVMHEALHNHYTQKSLSLSPG

The binders below were run against T1, purified human FAP antigen (assay: ELISA, plate coated with purified human FAP antigen (FIG. 56F-56G)).
Method: as §1, §2

Row | Kd [nM] | Binder
8 | ~1 | IAB16C2-25 (other) EVQLLESGGGLVQPGGSLRLSCAASGFTFSSHAMSWVRQAPGKGLEWVSAIWASGEQYYADSVKGRFTISRDNSKNTLYLQMNSLRAEDTAVYYCAKGWLGNFDYWGQGTLVTVSSSGGGGEIVLTQSPGTLSLSPGERATLSCRASQSVSRSYLAWYQQKPGQAPRLLIIGASTRATGIPDRFSGSGSGTDFTLTISRLEPEDFAVYYCQQGQVIPPTFGQGTKVEIKGGCPPCPPC
9 | ~1 | IAB16C4-19 (other, also called IAB164-19) EVQLLESGGGLVQPGGSLRLSCAASGFTFSSYAMSWVRQAPGKGLEWVSAIIGSGASTYYADSVKGRFTISRDNSKNTLYLQMNSLRAEDTAVYYCAKGWFGGFNYWGQGTLVTVSSGGGSGGGGEIVLTQSPGTLSLSPGERATLSCRASQSVTSSYLAWYQQKPGQAPRLLINVGSRRATGIPDRFSGSGSGTDFTLTISRLEPEDFAVYYCQQGIMLPPTFGQGTKVEIKGGCPPCPPC
10 | ~1 | IAB16C2-18 (other) EVQLLESGGGLVQPGGSLRLSCAASGFTFSSYAMSWVRQAPGKGLEWVSAIIGSGASTYYADSVKGRFTISRDNSKNTLYLQMNSLRAEDTAVYYCAKGWFGGFNYWGQGTLVTVSSSGGGGEIVLTQSPGTLSLSPGERATLSCRASQSVTSSYLAWYQQKPGQAPRLLINVGSRRATGIPDRFSGSGSGTDFTLTISRLEPEDFAVYYCQQGIMLPPTFGQGTKVEIKGGCPPCPPC
11 | ~1 | IAB16C4-17 (other) QVQLVQSGAEVKKPGASVKVSCKTSRYTFTEYTIHWVRQAPGQRLEWIGGINPNNGIPNYNQKFKGRVTITVDTSASTAYMELSSLRSEDTAVYYCARRRIAYGYDEGHAMDYWGQGTLVTVSSGGGSGGGGDIVMTQSPDSLAVSLGERATINCKSSQSLLYSRNQKNYLAWYQQKPGQPPKLLIFWASTRESGVPDRFSGSGFGTDFTLTISSLQAEDVAVYYCQQYFSYPLTFGQGTKVEIKGGCPPCPPC
12 | ~1 | IAB16C2-16 (other) QVQLVQSGAEVKKPGASVKVSCKTSRYTFTEYTIHWVRQAPGQRLEWIGGINPNNGIPNYNQKFKGRVTITVDTSASTAYMELSSLRSEDTAVYYCARRRIAYGYDEGHAMDYWGQGTLVTVSSSGGGGDIVMTQSPDSLAVSLGERATINCKSSQSLLYSRNQKNYLAWYQQKPGQPPKLLIFWASTRESGVPDRFSGSGFGTDFTLTISSLQAEDVAVYYCQQYFSYPLTFGQGTKVEIKGGCPPCPPC
13 | ~1 | IAB16C4-27 (other) EVQLLESGGGLVQPGGSLRLSCAASGFTFSSHAMSWVRQAPGKGLEWVSAIWASGEQYYADSVKGRFTISRDNSKNTLYLQMNSLRAEDTAVYYCAKGWLGNFDYWGQGTLVTVSSGGGSGGGGEIVLTQSPGTLSLSPGERATLSCRASQSVSRSYLAWYQQKPGQAPRLLIIGASTRATGIPDRFSGSGSGTDFTLTISRLEPEDFAVYYCQQGQVIPPTFGQGTKVEIKGGCPPCPPC
14 | ~1 | IAB16C1-24 (other) EIVLTQSPGTLSLSPGERATLSCRASQSVSRSYLAWYQQKPGQAPRLLIIGASTRATGIPDRFSGSGSGTDFTLTISRLEPEDFAVYYCQQGQVIPPTFGQGTKVEIKSGGGGEVQLLESGGGLVQPGGSLRLSCAASGFTFSSHAMSWVRQAPGKGLEWVSAIWASGEQYYADSVKGRFTISRDNSKNTLYLQMNSLRAEDTAVYYCAKGWLGNFDYWGQGTLVTVSSGGCPPCPPC
